Columns and labels:
[1] = dual luciferase reporter, HEPM; conditions: glycan lost; control: MEIS2-WT in shOGT HEPM cells
[2] = anti-MEIS2 or anti-HA IP, ubiquitin blot; conditions: control: DMSO
[3] = CHX chase, immunoblot, endogenous MEIS2 in HEPM; conditions: control: DMSO
[4] = Western blot of MEIS2 ± MG132, HEPM; conditions: glycan lost; control: DMSO

B1: MEIS2: S237A (protein)
parent chain: MAQRYDELPHYGGMDGVGVPASMYGDPHAPRPIPPVHHLNHGPPLHATQHYGAHAPHPNVMPASMGSAVNDALKRDKDAIYGHPLFPLLALVFEKCELATCTPREPGVAGGDVCSSDSFNEDIAVFAKQVRAEKPLFSSNPELDNLMIQAIQVLRFHLLELEKVHELCDNFCHRYISCLKGKMPIDLVIDERDGSSKSDHEELSGSSTNLADHNPSSWRDHDDATSTHSAGTPGPSSGGHASQSGDNSSEQGDGLDNSVASPGTGDDDDPDKDKKRQKKRGIFPKVATNIMRAWLFQHLTHPYPSEEQKKQLAQDTGLTILQVNNWFINARRRIVQPMIDQSNRAGFLLDPSVSQGAAYSPEGQPMGSFVLDGQQHMGIRPAGLQSMPGDYVSQGGPMGMSMAQPSYTPPQMTPHPTQLRHGPPMHSYLPSHPHHPAMMMHGGPPTHPGMTMSAQSPTMLNSVDPNVGGQVMDIHAQ
With B1 the “other: transcriptional activation of promoter” value [1] was “decreases”.

B2: MEIS2: Thiamet G (protein)
parent chain: MAQRYDELPHYGGMDGVGVPASMYGDPHAPRPIPPVHHLNHGPPLHATQHYGAHAPHPNVMPASMGSAVNDALKRDKDAIYGHPLFPLLALVFEKCELATCTPREPGVAGGDVCSSDSFNEDIAVFAKQVRAEKPLFSSNPELDNLMIQAIQVLRFHLLELEKVHELCDNFCHRYISCLKGKMPIDLVIDERDGSSKSDHEELSGSSTNLADHNPSSWRDHDDATSTHSAGTPGPSSGGHASQSGDNSSEQGDGLDNSVASPGTGDDDDPDKDKKRQKKRGIFPKVATNIMRAWLFQHLTHPYPSEEQKKQLAQDTGLTILQVNNWFINARRRIVQPMIDQSNRAGFLLDPSVSQGAAYSPEGQPMGSFVLDGQQHMGIRPAGLQSMPGDYVSQGGPMGMSMAQPSYTPPQMTPHPTQLRHGPPMHSYLPSHPHHPAMMMHGGPPTHPGMTMSAQSPTMLNSVDPNVGGQVMDIHAQ
For B2, the “other: ubiquitination” value ([2]; glycan gained) was “decreases” and the degradation_or_half_life ([3]; glycan gained) was “increases”.

B3: MEIS2: OSMI-1 (protein)
parent chain: MAQRYDELPHYGGMDGVGVPASMYGDPHAPRPIPPVHHLNHGPPLHATQHYGAHAPHPNVMPASMGSAVNDALKRDKDAIYGHPLFPLLALVFEKCELATCTPREPGVAGGDVCSSDSFNEDIAVFAKQVRAEKPLFSSNPELDNLMIQAIQVLRFHLLELEKVHELCDNFCHRYISCLKGKMPIDLVIDERDGSSKSDHEELSGSSTNLADHNPSSWRDHDDATSTHSAGTPGPSSGGHASQSGDNSSEQGDGLDNSVASPGTGDDDDPDKDKKRQKKRGIFPKVATNIMRAWLFQHLTHPYPSEEQKKQLAQDTGLTILQVNNWFINARRRIVQPMIDQSNRAGFLLDPSVSQGAAYSPEGQPMGSFVLDGQQHMGIRPAGLQSMPGDYVSQGGPMGMSMAQPSYTPPQMTPHPTQLRHGPPMHSYLPSHPHHPAMMMHGGPPTHPGMTMSAQSPTMLNSVDPNVGGQVMDIHAQ
In the case of B3, the “other: ubiquitination” value ([2]; glycan lost) is reported as “increases”, the expression_or_secretion [4] is reported as “decreases” and the degradation_or_half_life ([3]; glycan lost) is reported as “decreases”.

Reference: publication PMC13050799
